Measurements published in paper PMC3098174.
Where two headings read alike, the source gives them in different places.

Legend:
[1] = target: Stingray Pancreatic Lipase (Dasyatis pastinaca) (common stingray Dasyatis pastinaca)
[2] = target: Stingray Pancreatic Lipase (Dasyatis pastinaca) (common stingray Dasyatis pastinaca); remark: listed apart in the source
[3] = target: chicken pancreatic lipase (chicken)
[4] = target: dromedary pancreatic lipase (dromedary)
[5] = target: turkey pancreatic lipase (turkey)
[6] = target: Stingray Pancreatic Lipase (Dasyatis pastinaca) (common stingray Dasyatis pastinaca); experiment: lipase activity titration with colipase, Scatchard plot; apparent Kd from the slope of Scatchard plots; lipase (2.1 nM) with increasing amounts of colipase, emulsified olive oil as substrate, 6 mM NaTDC, pH 8.5, 37°C, pH-stat
[7] = target: Stingray Pancreatic Lipase (Dasyatis pastinaca) (common stingray Dasyatis pastinaca); experiment: as above; remark: listed apart in the source
[8] = target: chicken pancreatic lipase (chicken); experiment: as above
[9] = target: dromedary pancreatic lipase (dromedary); experiment: as above
[10] = target: turkey pancreatic lipase (turkey); experiment: as above

Sequence of Stingray Pancreatic Lipase (Dasyatis pastinaca) (common stingray Dasyatis pastinaca) (A0A059TA26 entry or part of it): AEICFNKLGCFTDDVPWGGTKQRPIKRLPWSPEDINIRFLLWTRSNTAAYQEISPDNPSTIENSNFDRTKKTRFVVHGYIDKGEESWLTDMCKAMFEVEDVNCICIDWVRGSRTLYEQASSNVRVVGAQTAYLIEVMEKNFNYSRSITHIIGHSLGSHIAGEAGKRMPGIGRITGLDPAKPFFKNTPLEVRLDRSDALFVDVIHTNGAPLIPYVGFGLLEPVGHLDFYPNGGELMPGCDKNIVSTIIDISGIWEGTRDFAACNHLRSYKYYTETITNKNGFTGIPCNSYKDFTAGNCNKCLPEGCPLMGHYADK

kcat/Kd of SPL activated by colipase (olive oil emulsion, 6 mM NaTDC) (S^-1 M^-1 10^-9) [1]	kcat/Kd of lipase activated by stingray colipase (olive oil emulsion, 6 mM NaTDC) (S^-1 M^-1 10^-9) [2]	kcat/Kd of lipase activated by stingray colipase (olive oil emulsion, 6 mM NaTDC) (S^-1 M^-1 10^-9) [3]	kcat/Kd of lipase activated by stingray colipase (olive oil emulsion, 6 mM NaTDC) (S^-1 M^-1 10^-9) [4]	kcat/Kd of lipase activated by stingray colipase (olive oil emulsion, 6 mM NaTDC) (S^-1 M^-1 10^-9) [5]	Kd [6]	Kd [7]	Kd [8]	Kd [9]	Kd [10]	Substance
2070	2070	611	930	946	1.2 nM	1.15 nM	4.5 nM	3 nM	2.9 nM	stingray pancreatic colipase (Dasyatis pastinaca) (natural protein)
576	–	–	–	–	3.9 nM	–	–	–	–	chicken pancreatic colipase (natural protein)
1140	–	–	–	–	2.2 nM	–	–	–	–	dromedary pancreatic colipase (natural protein)
599	–	–	–	–	3.6 nM	–	–	–	–	turkey pancreatic colipase (natural protein)
